This note sets out measurements from patent US20250282820A1, “PEPTIDE COMPLEX HAVING TRKB BINDING ACTIVITY” (PEPTIDREAM INC, priority 2022, published 2025).

*1 amine or outer side, *2 acyl side, *3 side chain or, on linkers, in order; H or OH if unused. Where a SMILES comes first, the peptide text is derived from it. Bridges are numbered along the chain shown (N, C = ends). Roman numbers before positions name the chains, in order. Where no end group is shown, it is not given here. [ ]: non-standard residue; d: D form. CO(CH2CH2O)9CH2CH2CO = O=C(CCOCCOCCOCCOCCOCCOCCOCCOCCOCCC(=O)[*:2])[*:1]; 3Pal = N[C@@H](Cc1cccnc1)C(=O)O

The target of test [1] is TrkB (Homo sapiens, UniProt Q16620). In words: PathHunter eXpress TrkB Functional Assay (phosphorylation of TrkB). The settings on record: maximum signal induced by BDNF = 100%; stimulation for 3 hours. The test is classed as cell-based. The procedure: To evaluate the TrkB activation potency of the TrkB agonist peptide of the present invention, the phosphorylation of TrkB was examined. The PathHunter (registered trademark) eXpress TrkB Functional Assay kit (DiscoverX; cells, 96-well plate, medium, and detection reagents included) was used and the evaluation was performed according to the attached protocols. The frozen cells were thawed and suspended in the medium, then seeded into a 96-well plate at 10,000 cells per well and incubated for 48 hours. Thereafter, Recombinant Human BDNF Protein (R&D Systems) or a peptide was added, and after stimulation for 3 hours, a detection reagent was added. The reaction was performed while protected from the light at room temperature for 60 minutes, and luminescent signals were measured using a SpectraMax Paradigm Multi-Mode Microplate Reader (Molecular Devices). The obtained signals were analyzed with GraphPad Prism, and the activity (%) was calculated with the maximum value of the signals induced by BDNF as 100% and a signal with no stimulation as 0%.
The BDNF was evaluated at 8 points (0.006 nM to 100 nM) from 100 nM using 4-fold dilutions. The peptide was evaluated in the measurement ranges A to C shown below. • Measurement range A=6 points from 100 nM using 5-fold dilutions (0.032 nM to 100 nM) • Measurement range B=8 points from 100 nM using 4-fold dilutions (0.006104 nM to 100 nM) • Measurement range C=4 points from 10 nM using 10-fold dilutions (0.01 nM to 10 nM)

Test [2] addresses TrkB of the cells of the PathHunter eXpress TrkB Functional Assay kit (DiscoverX) (UniProt Q16620 32-822, limits assumed). In words: cell-based or functional assay.

Sequence of TrkB of the cells of the PathHunter eXpress TrkB Functional Assay kit (DiscoverX) (Q16620 32-822 limits assumed): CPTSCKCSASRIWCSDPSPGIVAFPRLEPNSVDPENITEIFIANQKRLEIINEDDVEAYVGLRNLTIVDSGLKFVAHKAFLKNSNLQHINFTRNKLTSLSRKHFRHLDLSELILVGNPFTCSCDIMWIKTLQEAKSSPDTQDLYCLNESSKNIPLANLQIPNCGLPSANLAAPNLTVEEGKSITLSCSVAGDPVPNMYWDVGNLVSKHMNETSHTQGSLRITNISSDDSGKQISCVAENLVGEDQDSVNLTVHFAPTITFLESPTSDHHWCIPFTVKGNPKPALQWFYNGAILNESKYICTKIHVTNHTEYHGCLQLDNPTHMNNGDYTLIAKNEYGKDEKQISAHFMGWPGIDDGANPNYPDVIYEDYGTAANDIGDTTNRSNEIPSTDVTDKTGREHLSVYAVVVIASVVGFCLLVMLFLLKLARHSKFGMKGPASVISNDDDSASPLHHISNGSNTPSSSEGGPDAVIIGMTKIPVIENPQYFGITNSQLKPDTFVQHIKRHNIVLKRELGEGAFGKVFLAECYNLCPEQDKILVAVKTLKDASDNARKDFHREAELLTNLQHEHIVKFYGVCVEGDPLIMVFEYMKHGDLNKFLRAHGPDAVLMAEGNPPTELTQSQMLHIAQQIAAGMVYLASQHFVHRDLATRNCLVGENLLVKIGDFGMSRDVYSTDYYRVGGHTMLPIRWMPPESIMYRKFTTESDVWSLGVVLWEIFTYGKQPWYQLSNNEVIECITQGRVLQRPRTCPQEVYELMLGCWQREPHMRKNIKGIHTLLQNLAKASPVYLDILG
Sequence of TrkB (Q16620 32-822): as the sequence (Q16620 32-822 limits assumed) above

One may read the Emax as the greatest response seen or fitted, relative to the assay's reference. Molecule `CC(C)[C@@H]1NC(=O)[C@H](Cc2cccnc2)NC(=O)[C@H](CCC(=O)O)NC(=O)[C@H](CO)NC(=O)[C@H](Cc2ccc(O)cc2)NC(=O)[C@H]([C@@H](C)O)NC(=O)[C@@H]2CCCN2C(=O)[C@H](Cc2c[nH]c3ccccc23)NC(=O)[C@H](Cc2cccnc2)NC(=O)[C@H](Cc2ccc(O)cc2)NC(=O)[C@@H]2CCCN2C(=O)[C@H](CO)NC(=O)[C@H](Cc2ccccc2)NC(=O)CSC[C@@H](C(=O)NCC(=O)N[C@@H](CCCCNC(=O)CCOCCOCCOCCOCCOCCOCCOCCOCCOCCC(=O)NCCCC[C@H](NC(=O)CNC(=O)[C@@H]2CSCC(=O)N[C@@H](Cc3ccccc3)C(=O)N[C@@H](CO)C(=O)N3CCC[C@H]3C(=O)N[C@@H](Cc3ccc(O)cc3)C(=O)N[C@@H](Cc3cccnc3)C(=O)N[C@@H](Cc3c[nH]c4ccccc34)C(=O)N3CCC[C@H]3C(=O)N[C@@H]([C@@H](C)O)C(=O)N[C@@H](Cc3ccc(O)cc3)C(=O)N[C@@H](CO)C(=O)N[C@@H](CCC(=O)O)C(=O)N[C@@H](Cc3cccnc3)C(=O)N[C@@H](C(C)C)C(=O)N[C@@H](CCC(=O)O)C(=O)N2)C(N)=O)C(N)=O)NC(=O)[C@H](CCC(=O)O)NC1=O` [compound 47] (I: {CH2CO}-FSPY[3Pal]WPTYSE[3Pal]VECGK-NH2 / II: {CH2CO}-FSPY[3Pal]WPTYSE[3Pal]VECGK-NH2; linker I:17-II:17 via CO(CH2CH2O)9CH2CH2CO; thioether I:N-I:15, II:N-II:15) had an Emax in test [1] of 107%.

Consider {CH2CO}-FLPY[3Pal]WPTYSL[3Pal]VWCG (thioether N-15; also: homodimer via linker No. 3 (PEG12c-K-PEG12c) at Gly16) [peptide complex, dimer structure No. 3 (peptide sequence No. 3 + linker structure No. 3)], for which the “PathHunter Emax (BDNF maximum = 100%)” value in test [2] came out at 89%.

For {CH2CO}-FSPY[3Pal]WPTYSE[3Pal]VECG (thioether N-15; also: homodimer via linker No. 2 (PEG8c-K-PEG8c) at Gly16) [peptide complex, dimer structure No. 15 (peptide sequence No. 15 + linker structure No. 2)], in test [2], the “PathHunter EC50” value worked out at 290 pM and the “PathHunter Emax (BDNF maximum = 100%)” value stood at 104%.

As for {CH2CO}-FEPY[3Pal]WPTYSE[3Pal]VSCG (thioether N-15; also: homodimer via linker No. 2 (PEG8c-K-PEG8c) at Gly16) [peptide complex, dimer structure No. 18 (peptide sequence No. 18 + linker structure No. 2)], in test [2], the “PathHunter EC50” value was found to be 260 pM and the “PathHunter Emax (BDNF maximum = 100%)” value is 93%.

As for {CH2CO}-FLPY[3Pal]WPTYSE[3Pal]VECG (thioether N-15; also: homodimer via linker No. 2 (PEG8c-K-PEG8c) at Gly16) [peptide complex, dimer structure No. 14 (peptide sequence No. 14 + linker structure No. 2)], in test [2], the “PathHunter EC50” value was 197 pM and the “PathHunter Emax (BDNF maximum = 100%)” value was found to be 86%.

{CH2CO}-FEPY[3Pal]WPTYSE[3Pal]VECG (thioether N-15; also: homodimer via linker No. 14 (K-OCOPEG13OCO-K) at Gly16) [peptide complex, dimer structure No. 57 (peptide sequence No. 17 + linker structure No. 14)]: in test [2], the “PathHunter EC50” value amounted to 669 pM and the “PathHunter Emax (BDNF maximum = 100%)” value amounted to 99%.

For {CH2CO}-FSPY[3Pal]WPTYSE[3Pal]VECG (thioether N-15; also: homodimer via linker No. 8 (K-cPEG17c-K) at Gly16) [peptide complex, dimer structure No. 49 (peptide sequence No. 15 + linker structure No. 8)], in test [2], the “PathHunter EC50” value stood at 644 pM and the “PathHunter Emax (BDNF maximum = 100%)” value came out at 107%.

B1: peptide complex, dimer structure No. 51 (peptide sequence No. 15 + linker structure No. 10) (peptide)
peptide: {CH2CO}-FSPY[3Pal]WPTYSE[3Pal]VECG
modifications: thioether N-15; also: homodimer via linker No. 10 (PEG2c-K-cPEG1c-K-PEG2c) at Gly16
In the case of B1, in test [2], the “PathHunter EC50” value came to 599 pM and the “PathHunter Emax (BDNF maximum = 100%)” value came out at 106%.

For the molecule {CH2CO}-FLPY[3Pal]WPTYSL[3Pal]VWCG (thioether N-15; also: homodimer via linker No. 2 (PEG8c-K-PEG8c) at Gly16) [peptide complex, dimer structure No. 2 (peptide sequence No. 3 + linker structure No. 2)], in test [2], the “PathHunter Emax (BDNF maximum = 100%)” value amounted to 89%.

Turning to {CH2CO}-FSPY[3Pal]WPTYSE[3Pal]VECG (thioether N-15; also: homodimer via linker No. 14 (K-OCOPEG13OCO-K) at Gly16) [peptide complex, dimer structure No. 55 (peptide sequence No. 15 + linker structure No. 14)], in test [2], the “PathHunter EC50” value stood at 581 pM and the “PathHunter Emax (BDNF maximum = 100%)” value was found to be 104%.

B2: peptide complex, dimer structure No. 33 (peptide sequence No. 15 + linker structure No. 4) (peptide)
peptide: {CH2CO}-FSPY[3Pal]WPTYSE[3Pal]VECG
modifications: thioether N-15; also: homodimer via linker No. 4 (PEG8c-K-cPEG1c-K-PEG8c) at Gly16
Take B2: in test [2], the “PathHunter EC50” value is 354 pM and the “PathHunter Emax (BDNF maximum = 100%)” value was found to be 96%.

As for {CH2CO}-FSPY[3Pal]WPTYSE[3Pal]VECG (thioether N-15; also: homodimer via linker No. 6 (K-cPEG9c-K) at Gly16) [peptide complex, dimer structure No. 47 (peptide sequence No. 15 + linker structure No. 6)], in test [2], the “PathHunter EC50” value was 556 pM and the “PathHunter Emax (BDNF maximum = 100%)” value was 107%.
